Drawing on PMC7060239, this text covers Kd and stoichiometry N for 2 substances.

This assay has as its target human DNMT1 RFTS domain, residues 351–600 (human) (UniProt P26358). Put plainly: ITC; hRFTS and ubiquitylated hPAF15_(2-30) analogs; VP-ITC; 10 mM HEPES-NaOH (pH 7.5), 150 mM NaCl, 10 μM zinc acetate; one-site model; c value 10,000 for hPAF15_(2-30)Ub2. In general terms: In ITC the heat of successive injections is recorded.

Chain of human DNMT1 RFTS domain, residues 351–600 (human) (P26358 351-600): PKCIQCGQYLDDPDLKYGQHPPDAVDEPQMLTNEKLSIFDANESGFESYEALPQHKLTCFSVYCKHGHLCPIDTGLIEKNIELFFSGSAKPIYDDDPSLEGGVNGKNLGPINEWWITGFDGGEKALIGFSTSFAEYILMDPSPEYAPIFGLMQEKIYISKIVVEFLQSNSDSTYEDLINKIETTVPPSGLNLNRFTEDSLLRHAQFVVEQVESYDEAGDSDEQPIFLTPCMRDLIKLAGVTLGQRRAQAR

With “hPAF15_(2-30)Ub2, disulfide-linked dual mono-ubiquitylated analog of human PAF15 (residues 2–30) (from UniProt Q15004 2-30)”, the Kd (commonly the constant that tells how readily two partners part at equilibrium) worked out at 1.4 nM and the stoichiometry N (usually a count of units in the complex or per binding partner) was 1. “hPAF15_(2-30)K15Ub, disulfide-linked mono-ubiquitylated analog (from UniProt Q15004 2-30)” returned an equilibrium dissociation constant (Kd) of 1200 nM.
